The target in assay [1] is T1, human claudin 6 (CLDN6) (human, UniProt P56747 1-220).
T1 construct: also called human CLDN6; hCLDN6
T1 sequence: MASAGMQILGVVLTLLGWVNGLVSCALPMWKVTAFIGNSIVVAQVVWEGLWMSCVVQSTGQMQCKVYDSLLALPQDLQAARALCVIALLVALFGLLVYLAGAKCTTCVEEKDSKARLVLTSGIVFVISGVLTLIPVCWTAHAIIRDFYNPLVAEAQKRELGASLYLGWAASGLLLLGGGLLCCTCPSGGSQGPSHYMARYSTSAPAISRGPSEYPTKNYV
Put plainly: flow cytometry, PA-1 cells; ratio to chBG87P. The procedure:
(§1) For affinity determination, CLDN6 over-expressing HEK293T cells and cancer cell line PA-1 which express high levels of human CLDN6 were used to evaluate the binding activity of BG87P related engineering variants. Live cells were seeded in 96-well plate, and were incubated with a series of dilutions of chBG87P and engineered variants thereof. Goat anti-human IgG was used as second antibody to detect antibody binding to the cell surface. EC50 values for dose-dependent binding to CLDN6 expressing cell lines were determined by fitting the dose-response data to the four-parameter logistic model with GraphPad Prism. Cell binding activity of 1st round of BG87P humanization variants against HEK293T/human CLDN6 were compared to chBG87P and shown in FIG. 1A.

The target of assay [2] is T1, human claudin 6 (CLDN6). Put plainly: flow cytometry, HEK293T-human CLDN6 cells; ratio to chBG87P. The procedure: as §1
Assay [3] has as its target T1, human claudin 6 (CLDN6). Put plainly: flow cytometry, HEK293T-hCLDN6 cells; ratio to chBG87P.
Another assay has as its target T2, cyno CLDN6 (cyno).
T2 construct: whole, on cells; also called cynomolgus CLDN6
Put plainly: flow cytometry, HEK293T-cyno-CLDN6 cells; ratio to chBG87P.

Assay [4] addresses T1, human claudin 6 (CLDN6). Put plainly: flow cytometry, HEK293-hCLDN6 cells; ratio to chBG87P.
Assay [5] concerns the target T1, human claudin 6 (CLDN6). Put plainly: flow cytometry, PA-1 cells. The procedure: as §1

Where a chain is given by its changes, count along the chain named. In names and notes the source's numbering stands.

B1: anti-CLDN6 chimeric BG87P (antibody, V domains shown)
VH: QIQLQQSGPELVKPGASVKISCKASGYSFTDYHINWVKQRPGQGLEWIGWIYPGSGYTKYNEKFKVKATLTVDTSSSTAYMHLTSLTSEDSAVYFCARSGIYHYVSSYYFDHWGQGTTLTVSS
VL: DIVMTQSHTFMSTSVGDRVSITCKASQDVGTAVAWYQQKPGQSPKLLIYWASTRHTGVPDRFTGSGSGTDFTLTISNVQSEDLADYFCQQYSSYTFGGGTKLEIK
notes: expressed in HEK293T; also called chBG87P; ChBG87P
For the molecule B1, the “Emax ratio to BG87P” value with human claudin 6 (CLDN6) [1] and with human claudin 6 (CLDN6) [2] was 1 each time. Moreover, the “FACS Emax ratio to BG87P” value with human claudin 6 (CLDN6) [3] and in the assay with cyno CLDN6 was 1 in each case. Besides, the “FACS-Ec50 ratio to BG87P” value with human claudin 6 (CLDN6) [4] was determined as 1.

B2: BG87P-m2 (antibody, V domains shown)
VH: B1 VH with D111Q
VL: B1 VL
notes: PTM removal variant of chBG87P
For the molecule B2, the “Emax ratio to BG87P” value with human claudin 6 (CLDN6) [2] is 1.05.

B3: BG87P-m4 (antibody, V domains shown)
VH: B1 VH with H33A
VL: B1 VL
notes: Variant of chBG87P with H33A
As for B3, the “Emax ratio to BG87P” value with human claudin 6 (CLDN6) [2] came out at 0.74.

B4: BG87P-m1 (antibody, V domains shown)
VH: B1 VH with D111E
VL: B1 VL
notes: as for B2
Consider B4, for which, in the assay with human claudin 6 (CLDN6) [2], the “Emax ratio to BG87P” value was 1.08.

B5: BG87P-m3 (antibody, V domains shown)
VH: B1 VH with V66G
VL: B1 VL
notes: PTM removal variant of chBG87P with VH V65G
Regarding B5, the “Emax ratio to BG87P” value with human claudin 6 (CLDN6) [2] came out at 1.18.

B6: BG87P-Bz0 (antibody, V domains shown)
VH: QIQLVQSGAEVKKPGASVKVSCKASGYSFTDYHINWVRQAPGQRLEWMGWIYPGSGYTKYNEKFKVRVTLTVDTSASTAYMELSSLRSEDTAVYFCARSGIYHYVSSYYFDHWGKGTTVTVSS
VL: DIQMTQSPSTLSASVGDRVTITCKASQDVGTAVAWYQQKPGKSPKLLIYWASTRHTGVPSRFSGSGSGTEFTLTISSVQPDDFATYFCQQYSSYTFGGGTKVEIK
notes: Humanized, all back mutations; also called BG87P-B20; BG87-Bz0
Take B6: the “Emax ratio to BG87P” value with human claudin 6 (CLDN6) [2] worked out at 0.56.

B7: BG87P-32 (antibody, V domains shown)
VH: QVQLQQSGAETKKPGASVKVSCKASGYSFTDYHINWVRQASGQRLEWMGYIYPGSGHTKKNEKFKGRVTITRDTSASTAYMELSSLRSEDTAVYYCARSGIYHYVSSYYFDHWGKGTTVTVSS
VL: B6 VL with V29A, T31S, S43A, V78L, F87Y
notes: Solubility engineering variant of BG87P-21
B7: the “FACS Emax ratio to BG87P” value with human claudin 6 (CLDN6) [3] was 0.63. The “FACS-Ec50 ratio to BG87P” value in the assay with human claudin 6 (CLDN6) [4] stood at 1.31.

B8: BG87P-33 (antibody, V domains shown)
VH: EVQLQESGGGLVQPGGSLRLSCAASGYSFTDYHINWVRQAPGKGLEWVSYIYPGSGHTKYNEKFKGRFTISRDTSKNTAYLQMNSLRAEDTAVYYCARSGIYHYVSSYYFDHWGQGTLVTVSS
VL: B6 VL with V29A, T31S, S43A, V78L, F87Y
notes: Framework-swapped variant; also called BG87-33
Consider B8, for which the “FACS Emax ratio to BG87P” value in the assay with human claudin 6 (CLDN6) [3] came out at 0.91; in the assay with cyno CLDN6, 0.75. For the same molecule, the “FACS-Ec50 ratio to BG87P” value with human claudin 6 (CLDN6) [4] turned out to be 2.45.

B9: BG87P-31 (antibody, V domains shown)
VH: B7 VH
VL: B6 VL with V29A, T31S, S43A, Y49K, V78L, F87Y
notes: as for B7
For the molecule B9, the “FACS Emax ratio to BG87P” value with human claudin 6 (CLDN6) [3] stood at 0.76. Also, the “FACS-Ec50 ratio to BG87P” value with human claudin 6 (CLDN6) [4] was determined as 1.6.

B10: BG87P-34 (antibody, V domains shown)
VH: B8 VH with T30S, S49G, K76S
VL: B6 VL with T10S, V29A, T31S, S43A, E70D, V78L, D81E, F87Y, V102L
notes: Final lead anti-CLDN6 clone (IGHV3-23 / IGKV1-39 framework); also called BG87-34
As for B10, the entries for the “FACS Emax ratio to BG87P” value in the assay with human claudin 6 (CLDN6) [3] and in the assay with cyno CLDN6 were 1.03 and 1, respectively. In addition, the “FACS-Ec50 ratio to BG87P” value with human claudin 6 (CLDN6) [4] stood at 1.17.

B11: BG87P-24 (antibody, V domains shown)
VH: B6 VH with I2V, V66G, V72R, F95Y
VL: B6 VL with S43A, V78L, F87Y
As for B11, the entries for the “Emax ratio to BG87P” value in the assay with human claudin 6 (CLDN6) [1] and with human claudin 6 (CLDN6) [2] were 0.5 and 0.73, respectively.

B12: BG87P-Bz5 (antibody, V domains shown)
VH: B6 VH with F95Y
VL: B6 VL
notes: also called BG87P-B25
With B12, in the assay with human claudin 6 (CLDN6) [2], the “Emax ratio to BG87P” value is 0.73.

B13: BG87P-27 (antibody, V domains shown)
VH: B6 VH with I2V, V66G, V72R
VL: B6 VL with S43A, V78L, F87Y
B13: the entries for the “Emax ratio to BG87P” value with human claudin 6 (CLDN6) [1] and in the assay with human claudin 6 (CLDN6) [2] were 0.53 and 0.68, respectively.

B14: BG87P-23 (antibody, V domains shown)
VH: B6 VH with V66G, L70I, V72R, F95Y
VL: B6 VL with S43A, V78L, F87Y
B14: the “Emax ratio to BG87P” value with human claudin 6 (CLDN6) [1] came to 0.58; in the assay with human claudin 6 (CLDN6) [2], 0.77.

B15: BG87P-z0 (antibody, V domains shown)
VH: B6 VH with I2V, S28T, L70I, V72R, F95Y
VL: B6 VL with S43A, V78L, F87Y
notes: Humanized, no back mutations; also called BG87P-20
On to B15, for which the “Emax ratio to BG87P” value was determined as 0.43 with human claudin 6 (CLDN6) [1] and 0.5 with human claudin 6 (CLDN6) [2].

B16: BG87P-Bz4 (antibody, V domains shown)
VH: B6 VH with V72R
VL: B6 VL
notes: also called BG87P-B24
For the molecule B16, in the assay with human claudin 6 (CLDN6) [2], the “Emax ratio to BG87P” value came to 0.57.

B17: BG87P-Bz3 (antibody, V domains shown)
VH: B6 VH with L70I
VL: B6 VL
notes: also called BG87P-B23
Consider B17, for which the “Emax ratio to BG87P” value with human claudin 6 (CLDN6) [2] was 0.56.

B18: BG87P-Bz8 (antibody, V domains shown)
VH: B6 VH
VL: B6 VL with F87Y
Consider B18, for which the “Emax ratio to BG87P” value in the assay with human claudin 6 (CLDN6) [2] was 0.68.

B19: BG87P-m8 (antibody, V domains shown)
VH: B6 VH with H33A
VL: B6 VL
notes: Variant of BG87P-Bz0 with H33A
On to B19, for which the “Emax ratio to BG87P” value with human claudin 6 (CLDN6) [2] worked out at 0.28.

B20: BG87P-m7 (antibody, V domains shown)
VH: B6 VH with V66G
VL: B6 VL
notes: PTM removal variant of BG87P-Bz0
On to B20, for which the “Emax ratio to BG87P” value with human claudin 6 (CLDN6) [2] was found to be 0.7.

B21: BG87P-26 (antibody, V domains shown)
VH: B6 VH with V66G, L70I, V72R
VL: B6 VL with S43A, V78L, F87Y
B21: the figures for the “Emax ratio to BG87P” value with human claudin 6 (CLDN6) [1] and with human claudin 6 (CLDN6) [2] were 0.54 and 0.77, respectively.

B22: BG87P-Bz7 (antibody, V domains shown)
VH: B6 VH
VL: B6 VL with V78L
notes: also called BG87P-B27
B22: in the assay with human claudin 6 (CLDN6) [2], the “Emax ratio to BG87P” value stood at 0.81.

B23: BG87P-Bz1 (antibody, V domains shown)
VH: B6 VH with I2V
VL: B6 VL
Turning to B23, the “Emax ratio to BG87P” value with human claudin 6 (CLDN6) [2] came to 0.52.

B24: BG87P-25 (antibody, V domains shown)
VH: B6 VH with V66G, V72R, F95Y
VL: B6 VL with S43A, V78L, F87Y
As for B24, the results for the “Emax ratio to BG87P” value with human claudin 6 (CLDN6) [1] and with human claudin 6 (CLDN6) [2] were 0.59 and 0.74, respectively.

B25: BG87P-m5 (antibody, V domains shown)
VH: B6 VH with D111E
VL: B6 VL
notes: as for B20
As for B25, in the assay with human claudin 6 (CLDN6) [2], the “Emax ratio to BG87P” value amounted to 0.66.

B26: BG87P-Bz2 (antibody, V domains shown)
VH: B6 VH with S28T
VL: B6 VL
B26: the “Emax ratio to BG87P” value in the assay with human claudin 6 (CLDN6) [2] is 0.44.

B27: BG87P-m6 (antibody, V domains shown)
VH: B6 VH with D111Q
VL: B6 VL
notes: as for B20
Consider B27, for which the “Emax ratio to BG87P” value with human claudin 6 (CLDN6) [2] stood at 0.62.

B28: BG87P-Bz6 (antibody, V domains shown)
VH: B6 VH
VL: B6 VL with S43A
notes: also called BG87P-B26
For B28, the “Emax ratio to BG87P” value with human claudin 6 (CLDN6) [2] amounted to 0.75.

B29: BG87P-22 (antibody, V domains shown)
VH: B6 VH with I2V, V66G, L70I, V72R
VL: B6 VL with S43A, V78L, F87Y
In the case of B29, the entries for the “Emax ratio to BG87P” value in the assay with human claudin 6 (CLDN6) [1] and with human claudin 6 (CLDN6) [2] were 0.54 and 0.71, respectively. Besides, the “Top MFI Mean” value with human claudin 6 (CLDN6) [5] came to 67800 MFI.

The values above are taken from US20240301061A1 (BEIGENE SWITZERLAND, published 2024).
